Assay [1] concerns the target human GLP-1 receptor (GLP-1R) (human, UniProt P43220 24-463). In words: cell-based or functional assay.
Assay [2] concerns the target T1, human gastric inhibitory peptide receptor (GIPR) (human, UniProt P48546 22-466).
T1 sequence (looked up): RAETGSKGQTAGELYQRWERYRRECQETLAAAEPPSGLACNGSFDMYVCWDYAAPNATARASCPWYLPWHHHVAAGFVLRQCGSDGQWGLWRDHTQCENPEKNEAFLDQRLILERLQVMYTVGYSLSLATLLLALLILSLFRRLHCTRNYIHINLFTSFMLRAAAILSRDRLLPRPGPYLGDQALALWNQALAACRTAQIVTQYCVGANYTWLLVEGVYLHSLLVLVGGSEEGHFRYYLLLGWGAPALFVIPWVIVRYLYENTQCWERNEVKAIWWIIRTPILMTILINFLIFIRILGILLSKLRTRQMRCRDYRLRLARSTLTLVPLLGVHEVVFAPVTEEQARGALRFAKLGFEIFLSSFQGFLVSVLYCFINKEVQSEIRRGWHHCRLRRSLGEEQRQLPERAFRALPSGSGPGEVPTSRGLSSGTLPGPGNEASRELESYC
In words: cell-based or functional assay.

Numbered stars: 1 amine (or outer) side, 2 acyl side, 3 side chain; on linkers, the order of the positions; unused ones are H or OH. Square brackets hold non-standard residues; d marks the D form. Side chains are listed from the residue outwards. Ends that are not written are not given here. * marks the point of attachment. C20 diacid = O=C(O)CCCCCCCCCCCCCCCCCCC(=O)*; αMePhe(2-F) = C[C@](N)(Cc1ccccc1F)C(=O)O; γGlu = O=C(O)[C@H](CCC(=O)[*:2])N[*:1]; αMeF = C[C@](N)(Cc1ccccc1)C(=O)O; AEEA = NCCOCCOCC(=O)O; Aib = CC(C)(N)C(=O)O

The values below come from patent US20220048967A1 (published 2022).

B1: Example 165 (peptide)
peptide: Y[Aib]EGT[αMePhe(2-F)]TSDHSI[αMeF]LDEK([AEEA-AEEA-γGlu-C20 diacid])AQ[Aib]TFI[dE][αMeF]LI[dE]GGPSSGAPPPS-NH2
modifications: N-terminus assumed
SMILES: CC[C@H](C)[C@H](NC(=O)[C@H](CC(C)C)NC(=O)[C@](C)(Cc1ccccc1)NC(=O)[C@@H](CCC(=O)O)NC(=O)[C@@H](NC(=O)[C@H](Cc1ccccc1)NC(=O)[C@@H](NC(=O)C(C)(C)NC(=O)[C@H](CCC(N)=O)NC(=O)[C@H](C)NC(=O)[C@H](CCCCNC(=O)COCCOCCNC(=O)COCCOCCNC(=O)CC[C@H](NC(=O)CCCCCCCCCCCCCCCCCCC(=O)O)C(=O)O)NC(=O)[C@H](CCC(=O)O)NC(=O)[C@H](CC(=O)O)NC(=O)[C@H](CC(C)C)NC(=O)[C@](C)(Cc1ccccc1)NC(=O)[C@@H](NC(=O)[C@H](CO)NC(=O)[C@H](Cc1c[nH]cn1)NC(=O)[C@H](CC(=O)O)NC(=O)[C@H](CO)NC(=O)[C@@H](NC(=O)[C@](C)(Cc1ccccc1F)NC(=O)[C@@H](NC(=O)CNC(=O)[C@H](CCC(=O)O)NC(=O)C(C)(C)NC(=O)[C@@H](N)Cc1ccc(O)cc1)[C@@H](C)O)[C@@H](C)O)[C@@H](C)CC)[C@@H](C)O)[C@@H](C)CC)C(=O)N[C@H](CCC(=O)O)C(=O)NCC(=O)NCC(=O)N1CCC[C@H]1C(=O)N[C@@H](CO)C(=O)N[C@@H](CO)C(=O)NCC(=O)N[C@@H](C)C(=O)N1CCC[C@H]1C(=O)N1CCC[C@H]1C(=O)N1CCC[C@H]1C(=O)N[C@@H](CO)C(N)=O
Turning to B1, in assay [1], the “hGLP1R cAMP EC50 ratio” value was found to be 0.01 and the “hGLP1R cAMP Rel EC50” value came out at 5.81 nM. Further, in assay [2], the “hGIPR cAMP EC50 ratio” value came to 0.172 and the “hGIPR cAMP Rel EC50” value was 1.04 nM.

B2: Example 166 (peptide)
peptide: Y[Aib]EGT[αMePhe(2-F)]TSDHSI[αMeF]LDEK([AEEA-AEEA-γGlu-C20 diacid])AQ[Aib]TFI[dE]YLIEGG-NH2
modifications: N-terminus assumed
SMILES: CC[C@H](C)[C@H](NC(=O)[C@H](CC(C)C)NC(=O)[C@H](Cc1ccc(O)cc1)NC(=O)[C@@H](CCC(=O)O)NC(=O)[C@@H](NC(=O)[C@H](Cc1ccccc1)NC(=O)[C@@H](NC(=O)C(C)(C)NC(=O)[C@H](CCC(N)=O)NC(=O)[C@H](C)NC(=O)[C@H](CCCCNC(=O)COCCOCCNC(=O)COCCOCCNC(=O)CC[C@H](NC(=O)CCCCCCCCCCCCCCCCCCC(=O)O)C(=O)O)NC(=O)[C@H](CCC(=O)O)NC(=O)[C@H](CC(=O)O)NC(=O)[C@H](CC(C)C)NC(=O)[C@](C)(Cc1ccccc1)NC(=O)[C@@H](NC(=O)[C@H](CO)NC(=O)[C@H](Cc1c[nH]cn1)NC(=O)[C@H](CC(=O)O)NC(=O)[C@H](CO)NC(=O)[C@@H](NC(=O)[C@](C)(Cc1ccccc1F)NC(=O)[C@@H](NC(=O)CNC(=O)[C@H](CCC(=O)O)NC(=O)C(C)(C)NC(=O)[C@@H](N)Cc1ccc(O)cc1)[C@@H](C)O)[C@@H](C)O)[C@@H](C)CC)[C@@H](C)O)[C@@H](C)CC)C(=O)N[C@@H](CCC(=O)O)C(=O)NCC(=O)NCC(N)=O
Consider B2, for which, in assay [1], the “hGLP1R cAMP EC50 ratio” value was 0.0143 and the “hGLP1R cAMP Rel EC50” value stood at 4.08 nM. Further, in assay [2], the “hGIPR cAMP EC50 ratio” value was 0.504 and the “hGIPR cAMP Rel EC50” value came out at 0.355 nM.
